Test: soluble on expression in E. coli; label from the status in PepcDB or PDB records

| Sequence | soluble on expression in E. coli |
| --- | --- |
| MSAYLDWLADMGIDGAHPGGFELTKQILRKLKIDRSTSVLDVGCGTGQTAAYIAEQYGANVTAIDIHPTMIAKAKQRFAAKAVSVRLHRASVEALPFPAGTFDLALSESVLAFVSLPNALAEIRRVLKNDGLFVGIEACHERLTAAEQKQIAAFYGFRQLMTSAEWKEVLEQSGFGCRQFSYAAAAEAPSLGAPIVIALPPTPEMASMWQMHQQLTAQFGDRLGYCVFCCEP | not soluble |
| MSCINLPTVLPGSPSKTRGQIQVILGPMFSGKSTELMRRVRRFQIAQYKCLVIKYAKDTRYSSSFCTHDRNTMEALPACLLRDVAQEALGVAVIGIDEGQFFPDIMEFCEAMANAGKTVIVAALDGTFQRKPFGAILNLVPLAESVVKLTAVCMECFREAAYTKRLGTEKEVEVIGGADKYHSVCRLCYFKKASGQPAGPDNKENCPVPGKPGEAVAARKLFAPQQILQCSPAN | soluble |
| MSDALDDENVLCFRYKSYYIKDDGSRIDTLNEERIKHIVDFTLDKYLDATQNTPKFDNFENPVKEGFNSIFACESKEAAIEYYKEFKKQIEQKKLPIKIASIIAQTKVVMNKKLV | soluble |
| MSDATLHATDQNPDDFAVQIADQIESFLVAVTEVAKGDEPDSAVPFLLLEVSQLMLAGGRLGAHEDIVPDERYEPDPGPELDVDEIRENLARILDPVDVYSEVFDPYEPRKAPVPARISDDLTDVITDLRHGMVHYKAGRTTEALWWWQFSYFSNWGSTASATLRALQSVVAHVRLNQPLEELDGLDTDQELGEETLESEAGRVMVREIAAPLGLRPVKLEHHHHHH | soluble |
| MSDESEALLRVDHVKYRKAGDGKSPIGRLALFTDFIEWRDNASPEVFTCKFIRINGQRVSPPHKSKVQLQLILKNEDQATFVFLNPSASKEDLVKERDAVKEALQSALVKHRHRVNELAKSVESQSKQVELQAKQKILQEDRNLEKLYQNLVATKLITPDDFWSDYYQKEGVSEDKIGINGAFLANIVQQEGTNGVRLNLNPEIIQAIYSTYPAGQYWQNRENKKKCKEILKFTIQCEYLTRKISRSENYIQKKNLELVPHEMSEENFWKKFFQSHYFHREREVLPNPKDPFAECVRDDEEEMTKMTAEKIQRKRFDLEHIDDNGLRDFIHKSESQQKSAKTTLIKRCNYLSEKILATSWRSGEAAPTTSAAANQKKGFGVLDRLVAETETRLESEDLATKEAEDEVQIVRISSSAKASQAKYSKPDMTRYKALVTDYFQNSSVEDILHRNEMLLDQQEMETWEMEEAMETDNNEVPPPENWCQSAGDLAKVRDVHSAVREICRQFWKSFPPIDKASEEKLNRMAGTLSKYRDDIRNSDISKENLTHCIQMIDLAVDKFEAYEMKKMK | not soluble |
| MSDESPAFALHSGSSRQRKSLEFRFQQSPRWAPYSSASDGNEQKTSLVNNSLTRPNSSNPQCLNEENGFDRDSTAISTSFRSLLSLSESSVPWETPTNNQSSSLTHCSYPRVFCNPVSVCENPEPDHTQEDSSTNPGSSIMMSTRNHQGSPVEEEVSPNSSSNDMLLDVERSNDTEVANPRSEQGSMTHQRCGICKKLLSQKSPWSSYKILRSRDMPATGVFPCHHVYHVECLDKATPTAQTRDPSCPVCSNTIGVMEQPLIAPETLQMALRSLRRSRTALELETVRVPSNDNQRRHNTRRSHKWDKLSCCLNISFSSSS | soluble |
| MSDFEETIRRLQSEKGVVGIIVVDSAGRVIHSTIDSDATQSHTAFLQQLCEKTKTSIRELDSSNDLTFLRLRTKKNEIMIAPDKDHVIMVIKDLS | not soluble |
| MSDGERVLKIPVEYFEDGWKKGEAVITKDAISFAGKTIRFKEIQDLERLKHEGRDAIRIKKDADYFIDFGSRQAQIFRYLAFNLKSDRFAVYFLSPATRGGVVVSDSKWEKGYLSITDEALWFLSSSKQIRISIQNLGSVEKDIRTVGKKQRVVLVVTHVENGEVITSFVLCPETTMDMLQEYIQNFIEKSKPKEKLSEVEEQILTMVYTGVDSVSVESILGVTTEELNKMYDRLVNLGLARVVKIRKEIELTPRGVALVSEIMKKAAR | not soluble |
| MSDGQLVQRRRKAEEPVTEKVDEASGDSAQSSDQEDNDKGTRLTLMEQILLLGLKDREGYTSFWNDCISSGLRGCVLIELVLRGRIQLEGGGMRRKNLLNRKVTVKSSEPTGDVILDEALRHMKETNPPETVTSWIEYLSGETWNPLKLRYQLRNVRERLAKNLVEKGVLTTDKQNFLLFEITTHPLSDGNQKTKLIKEVQEAVLGKWTNDVHRMDKKMLSLIVLAHASDVLENAFAPLSDQDYEVKQMLEILFFSGKLAHFEPKNVAMKRVRSLLDLDYDQQAEKKGNDVMWAVFEAFSK | soluble |
| MSDIFNSPQNKASILTALMKSTTGDVEDVLIPKRFRPAKDPLDSPQAAAQFLKDNKYRILRPRAIPTMVELETDAALPRLRQMVEDGKLKDTVSVPEGTTAFYPKYYPFHKPDHDEVGTFGAPDITLLKQLTFFLLENDFPTGPETLRQVREAIATLQYGSGSYSGQLNRLLAMKGVATGRNPNKTPKTVGYTNEQLAKLLEQTLPINTPKHEDPDLRWAPSWLINYTGDLSTDKSYLPHVTIKSSAGLPYIGKTKGDTTAEALVLADSFIRDLGRAATSADPEAGVKKTITDFWYLSCGLLFPKGERYTQVDWDKKTRNIWSAPYPTHLLLSMVSTPVMNESKLNITNTQTPSLYGFSPFHGGMDRIMTIIRDSLDNDEDLVMIYADNIYILQDNTWYSIDLEKGEANCTPQHMQAMMYYLLTRGWTNEDGSPRYNPTWATFAMNVAPSMVVDSSCLLMNLQLKTYGQGSGNAFTFLNNHLMSTIVVAEWVKAGKPNPMTKEFMDLEEKTGINFKIERELKNLRETIVEAVETAPQDGYLADGSDLPPIRPGKAVELDLLGWSAIYSRQMEMFVPVLENERLIASAAYPKGLENKALARKPGAEIAYQIVRYEAIRLVGGWNNPLLETAAKHMSLDKRKRLEVKGIDVTGFLDDWNNMSEFGGDLEGITLSEPLTNQTLVDINTPLDSFDPKARPQTPRSPKKTLDEVTTAITSGTYKDPKSAVWRLLDQRTKLRVSTLRDQALALKPASSSVDNWAEATEELAQQQQLLMKANNLLKSSLTETREALETIQSDKIIAGKSNPEKNPGTAANPVVGYGEFSEKIPLTPTQKKNAKRREKQRRNQ | not soluble |
| MSDITLDIADFHWVTQILDTMDSGLIVLDPEYNVCVWNSFMQSYSGVLSQDILGQCLFDHFDELPRTWLETKLKASADLETRSFSSWENRPYLFKFNNFSPVSNSCDFMFQDIVITPLRSLSGEVSHIAIQVNDVSETARNRIHLRETNQHLSEISRKDGL | not soluble |
| MSDKFNQFINRVLSHEGGYANHPKDPGGETNWGITKRTAQANGYNGSMRAMTREQAISIYRKAFWERYRADQMPEAVAFQFFDACVNHGYGNAARMLQRAAGVPDDGVIGAVSLKAINSLPENDLLLRFNAERLVFYTKLGTFTSFGKGWVRRVAQNLIHASADNTD | soluble |
| MSDNAQLTGLCDRFRGFYPVVIDVETAGFNAKTDALLEIAAITLKMDEQGWLMPDTTLHFHVEPFVGANLQPEALAFNGIDPNDPDRGAVSEYEALHEIFKVVRKGIKASGCNRAIMVAHNANFDHSFMMAAAERASLKRNPFHPFATFDTAALAGLALGQTVLSKACQTAGMDFDSTQAHSALYDTERTAVLFCEIVNRWKRLGGWPLPAAEEV | not soluble |
| MSDNLSARWHRILDMTNRETSDDVVIARSSFDDFSQSTPWRKFEISCGNRSFFVNPGWLAELSPYFADELYVRKPNVQRYVIDQATPDEVLEFLRCITFCPMRKPLTVKNVSLVLTFANRFEMRPVQARCENFIAQNATSLSRDKTKLFQVTCAMSQCDPNSSTMSVLVDKLAGIKDDELSRLHFAEMPGDVVAEVYAQKIQRTKDKKAQRQAGASDETAAGCCFMQWASSLFNRRRQRNQADQSILPPSGDQQHHRSELHA | not soluble |
| MSDPRPVVARCEGMFPADLARYEAQRTRKGGDLGHIDASRSHLNRPLLGEADWAKQAMAEIEAMRAENYADELEALQRRGRKKEIQKRMVEGPKDPWRASRHGPLREIILTAHKDWFNEIVFDGNRMDFAARERAFEDRAVAWLQQTFGDDIVHARADLDETTYHIHAVLVPRAVVKVNGATRRMLQPSIHPLIEDYEKLQDSVGAWFSAIGLARGEKRAEAIREAAAKGDPIPKKRHHCRPSDWRRRQEAEVIRQRAEVEAREAATAETAAALDARRADLAHHEERLAAEDARLSAVAATRRAEAGRLDHRVEAVVARETVADERMAEADAVLAVAEGPGAGAFDIDDAGGTPMLTERPENPSLLARLKRPVAGSDRGRARAVAALGAAWTRLRKAAGEAAEARLAREHEDLRKADEALLEVARTLPETARERIARARPTIARSLTGIGLTLRRLRGRDGGAQRDESGTGEKLEHHHHHH | soluble |
| MSDSSSSDGEDNQKFLGNRKKNLTKKKVVTEEIEKDDEEDVKEKSFAELGVSQPLCDACQRLGWMKPSKIQQAALPHALQGKDVIGLAETGSGKTGAFAIPVLQSLLDHPQAFFCLVLTPTRELAFQIGQQFEALGSGIGLIAAVIVGGVDMAAQAMALARRPHIIVATPGRLVDHLENTKGFNLKALKFLIMDEADRILNMDFEVELDKILKVIPRERRTYLFSATMTKKVSKLERASLRDPARVSVSSRYKTVDNLKQHYIFVPNKYKETYLVYLLNEHAGNSAIVFCATCATTMQIAVMLRQLGMQAVPLHGQMSQEKRLGSLNKFKSKAREILVCTDVAARGLDIPHVDMVINYDMPSQSKDYVHRVGRTARAGRSGIAITVVTQYDVEAYQKIEANLGKKLDEYKCVENEVMVLVERTQEATENARIEMKEMDEKKKSGKKRRQNDDFGDTEESGGRFKMGIKSMGGRGGSGGGRGGKKKKMSK | soluble |
| MSDTPAQTPEPSKKTPEPSGVDLARVALRAAKEQARARGDAAQQKRQARRGGLRSGARADGRDPMALGAAINRLLTERGWETPAAVGGVMGRWPQIVGEDLAKHCVPQRYDEDERVLTVQCDSTAWATQLRLLAPQLVARLNEDLGHGTVRLLKVQGPGGPARRYGPLRAPGSTGPGDTYG | not soluble |
| MSDTPQAILLMGPTASGKTGLALELARRFPVEIVSVDSALVYRDMDIGTAKPTAEEMAACPHHLIDVISPLQSYSAAQFHADANRLIADIQARGKLPLLVGGTMLYYKALLEGLSDLPQADAALRAELDADAALLGWPAMHARLAELDPATASRLNPNDSQRIHRALEVCLLSGKPMSELIAQGKEAAAGFRFLPLALVPRERGWLHARIAERFRIMLEQGFLDEVSRLRAKYPELTLNLPSMRCVGYRQAWEHQDGLYGHDEFVERGVAATRQLAKRQLTWTRSLDAIPVDAQRDGLAGLLGDAVDDFLAGRPPAESLRYAGDF | soluble |
| MSDVSRILKEARSQSRLTTLDYAEQIFDDFMELHGDRHFADDGAIVGGIGLLDGQAVTVIGVQKGKNLQDNLNRNFGQPNPEGYRKALRLMKQAEKFKRPVVTFINTAGAYPGIGAEERGQGEAIARNLLEMSDLKVPIIAIIIGEGGSGGALALAVADKVWMLEHTMYAVLSPEGFASILWKDGSRSIEAAELMKITAGELLKMEVVDKVIPEHGYFSSEIIQMLKTNLIEELKNLDQYPLNDLLEKRYQRFRKY | not soluble |
| MSDYENDDECWNVLEGFRVTLTSVIDPSRITPYLRQCKVLNPDDEEQVLSDPNLVIRKRKVGVLLDILQRTGHKGYVAFLESLELYYPQLYKKVTGKEPARVFSMIIDASGESGLTQLLMTEVMKLQKKVQDLTALLSSKDDFIKELRVKDSLLRKHQERVQRLKEECEAGSRELKRCKEENYDLAMRLAHQSEEKGAALMRNRDLQLEIDQLKHSLMKAEDDCKVERKHTLKLRHAMEQRPSQELLWELQQEKALLQARVQELEASVQEGKLDRSSPYIQVLEEDWRQALRDHQEQANTIFSLRKDLRQGEARRLRCMEEKEMFELQCLALRKDSKMYKDRIEAILLQMEEVAIERDQAIATREELHAQHARGLQEKDALRKQVRELGEKADELQLQVFQCEAQLLAVEGRLRRQQLETLVLSSDLEDGSPRRSQELSLPQDLEDTQLSDKGCLAGGGSPKQPFAALHQEQVLRNPHDAGLSSGEPPEKERRRLKESFENYRRKRALRKMQKGWRQGEEDRENTTGSDNTDTEGS | soluble |
